Experimental data published in article PMC9276969.

Target: V5-tagged L. vannamei STAT (Litopenaeus vannamei)
Assay: native gel or EMSA; S2 cells co-transfected with pAc5.1-STAT and pAc5.1-PTPN6 or pAc5.1-GFP (control); lysed in Pierce IP Lysis buffer at 48 h; 10% native PAGE, Western blot with antibody against shrimp STAT; dimer and monomer bands

stoichiometry N: 2
Substance: V5-tagged L. vannamei STAT (natural protein)
